Square brackets hold non-standard residues; d marks the D form. Ends that are not written are not given here. * marks the point of attachment. 5‑TAMRA = CN(C)c1ccc2c(-c3ccc(C(=O)*)cc3C(=O)[O-])c3ccc(N(C)C)cc3[o+]c2c1; pS = N[C@@H](COP(=O)(O)O)C(=O)O
Assays:
[1] = molecular target: full-length PKA-RIβ regulatory subunit dimer (UniProt P31321 1-381); assay: fluorescence polarisation
[2] = molecular target: full-length PKA-RIα regulatory subunit dimer (bovine, UniProt P00514 1-380); assay: fluorescence polarisation
full-length PKA-RIα regulatory subunit dimer, sequence (P00514 whole entry): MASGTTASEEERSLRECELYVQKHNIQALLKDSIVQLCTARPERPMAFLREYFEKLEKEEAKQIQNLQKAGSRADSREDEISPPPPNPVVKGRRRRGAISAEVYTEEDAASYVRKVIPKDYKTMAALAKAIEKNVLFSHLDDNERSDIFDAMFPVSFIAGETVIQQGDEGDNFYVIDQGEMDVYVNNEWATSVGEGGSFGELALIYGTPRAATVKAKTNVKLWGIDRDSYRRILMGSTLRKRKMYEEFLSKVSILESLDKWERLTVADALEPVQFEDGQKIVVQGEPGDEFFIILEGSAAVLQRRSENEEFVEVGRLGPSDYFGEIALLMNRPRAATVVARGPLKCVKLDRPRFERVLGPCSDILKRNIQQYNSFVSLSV

full-length PKA-RIβ regulatory subunit dimer, sequence (P31321 whole entry): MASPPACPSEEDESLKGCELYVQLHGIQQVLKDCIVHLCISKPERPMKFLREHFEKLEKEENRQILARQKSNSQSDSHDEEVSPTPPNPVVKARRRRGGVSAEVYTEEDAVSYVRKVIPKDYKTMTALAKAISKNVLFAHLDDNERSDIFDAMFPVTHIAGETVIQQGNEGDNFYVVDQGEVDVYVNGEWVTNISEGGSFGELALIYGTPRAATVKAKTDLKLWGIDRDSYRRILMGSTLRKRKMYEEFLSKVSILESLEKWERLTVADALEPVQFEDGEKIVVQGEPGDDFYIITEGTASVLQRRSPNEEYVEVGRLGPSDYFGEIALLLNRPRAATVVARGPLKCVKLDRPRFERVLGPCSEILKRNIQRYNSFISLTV

B1: phosphorylated smAKAP-AKB domain peptide (pSer66), tagged with 5-TAMRA (peptide)
peptide: {5‑TAMRA}-IVILEYAHRL[pS]QDILCDALQQWAC
modifications: cysteine pairing not given here
Kd [1]: > 500 nM
Kd [2]: > 500 nM

Source: paper PMC4980077 (The FEBS journal, 2016)
